The format of data set [1] is in vivo, cynomologous monkeys (Macaca fagscicularis). The note with it: cynomologous monkeys, five immunizations weeks 0, 4, 8, 18, 23. The procedure:
Immunizations: All intranasal immunizations were delivered with a 100 μl metered dose nasal spray device. All intramuscular injections were given in the quadriceps muscle with needle and syringe. All animals were immunized on a schedule of 0, 4, 8, 18 and 23 weeks.
Group 1: 1000 μg C4 (E9V)-V389.6P peptide in sterile normal saline, final volume 200 μl (100 μl each nostril).
Group 2: 1000 μg C4 (E9V)-V389.6P peptide, 50 μg 529 SE, and 250 μg human GM-CSF, final oil concentration 1%, final volume 1.0 ml (500 μl each quadriceps by IM injection).
All animals were closely monitored for changes in body temperature during the 24 hours immediately following each administration of the immunogen.

For a further data set, the system named is Aβ1-42 peptide. Kind of data set: Reciprocal anti-Aβ1-42 IgG endpoint total and subclass titers (Example 4). The note with it: Swiss-Webster mice n=10, 30 μg Aβ1-42 s.c. week 0 and 3. The format is in vivo. The procedure:
Formulations were mixed by vortex immediately prior to immunization.
After incubation, wells were washed, and developed with ABTS. Wells were read at 405 nm. Titers were standardized using control sera.
The same protocol was followed for analysis of […] peptide-specific antibody and subclass distribution, except that a concentration of 0.3 μg/ml per microtiter plate was used.
Outbred Swiss-Webster mice were divided into groups of ten mice each. Each group received 30 μg of Aβ1-42 peptide, which corresponds to an internal 42 amino acid long region of APP. […] Mice were immunized subcutaneously in the rump with a total volume of 0.2 ml, divided equally into each of two sites at the base of the tail/rump. Immunizations were administered at week 0 and week 3.
Mice were bled at days 0, 20, 35 and 70. Serum was analyzed from individual mice. Reciprocal endpoint anti-Aβ1-42 peptide IgG endpoint total class and subclass titers were measured from individual sera (n=10 Swiss-Webster) at week 5 and at week 10.

Aβ1-42 peptide, sequence (P05067 672-713): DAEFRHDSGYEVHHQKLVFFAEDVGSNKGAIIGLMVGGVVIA

In the case of `CC[C@H](C)[C@H](NC(=O)[C@H](CO)NC(=O)[C@H](CC(C)C)NC(=O)[C@H](CCCNC(=N)N)NC(=O)[C@H](CCC(=O)O)NC(=O)[C@H](CCCNC(=N)N)NC(=O)[C@@H](NC(=O)[C@H](CC(N)=O)NC(=O)[C@H](CC(N)=O)NC(=O)[C@H](CC(N)=O)NC(=O)[C@@H]1CCCN1C(=O)[C@H](CCCNC(=N)N)NC(=O)[C@@H](NC(=O)[C@H](C)NC(=O)[C@H](Cc1ccc(O)cc1)NC(=O)[C@H](CCSC)NC(=O)[C@H](C)NC(=O)[C@H](CCCCN)NC(=O)CNC(=O)[C@@H](NC(=O)[C@@H](NC(=O)[C@H](CCC(N)=O)NC(=O)[C@H](Cc1c[nH]c2ccccc12)NC(=O)[C@H](CCSC)NC(=O)[C@H](CC(N)=O)NC(=O)[C@@H](NC(=O)[C@@H](NC(=O)[C@H](CCC(N)=O)NC(=O)[C@@H](N)CCCCN)[C@@H](C)CC)[C@@H](C)CC)C(C)C)C(C)C)[C@@H](C)O)[C@@H](C)O)C(=O)NCC(=O)N1CCC[C@H]1C(=O)NCC(=O)N[C@@H](CCCNC(=N)N)C(=O)N[C@@H](C)C(=O)N[C@@H](Cc1ccccc1)C(=O)N[C@@H](Cc1ccc(O)cc1)C(=O)N[C@@H](C)C(=O)N[C@@H](CCCNC(=N)N)C(=O)N[C@@H](CCCNC(=N)N)C(=O)O` [C4(E9V)-V389.6P peptide alone], the “Immunogen safety and tolerability” value in data set [1] is “extremely well tolerated”.
Turning to “None: 30 μg Aβ1-42 peptide (SEQ ID NO:6) without adjuvant”, in the data set on Aβ1-42 peptide, the “Anti-Aβ1-42 Week 5 IgG Endpoint Titers, Geometric Mean” value is given as 12,976; the “Anti-Aβ1-42 Week 10 IgG2a Endpoint Titers, Geometric Mean” value was 5,910; the “Anti-Aβ1-42 Week 10 IgG Endpoint Titers, Geometric Mean” value was 21,426.

B1: GM-CSF (10): recombinant murine granulocyte macrophage colony stimulating factor, given with Aβ1-42 peptide (protein, UniProt P01587 18-141, looked up)
Granulocyte-macrophage …: APTRSPITVTRPWKHVEAIKEALNLLDDMPVTLNEEVEVVSNEFSFKKLTCVQTRLKIFEQGLRGNFTKLKGALNMTASYYQTYCPPTPETDCETQVTTYADFIDSLKTFLTDIPFECKKPGQK
On to B1, for which, in the data set on Aβ1-42 peptide, the “Anti-Aβ1-42 Week 5 IgG1 Endpoint Titers, Geometric Mean” value is 8,654; the “Anti-Aβ1-42 Week 5 IgG2a Endpoint Titers, Geometric Mean” value was 25,554; the “Anti-Aβ1-42 Week 5 IgG Endpoint Titers, Geometric Mean” value is recorded as 214,497; the “Anti-Aβ1-42 Week 10 IgG1 Endpoint Titers, Geometric Mean” value is listed as 8,483. For the same molecule, in the data set on Aβ1-42 peptide, the “Anti-Aβ1-42 Week 10 IgG2a Endpoint Titers, Geometric Mean” value was 64,910 and the “Anti-Aβ1-42 Week 10 IgG Endpoint Titers, Geometric Mean” value is 1,049,414.

The values are drawn from patent publication US20040156820A1, “Adjuvant combination formulations” (priority 2000, published 2004).
